The source of these data is article PMC4072685, “Galactose Oxidase from Fusarium oxysporum - Expression in E. coli and P. pastoris and Biochemical Characterization” (PLoS ONE, 2014).

Series [1] concerns the target T1, GalOx (galactose 6-oxidase from Fusarium oxysporum G12) (Fusarium oxysporum, UniProt V5NQ89).
T1 construct: gene gao
The series can be described thus: ABTS/horseradish peroxidase coupled assay, […] nm, Michaelis-Menten fit. The settings on record: apparent constant; co-substrate O2 (air); 20 mM potassium phosphate pH 7.0, 30°C; Cu2+-activated enzyme.

The test system of series [2] is CO[C@@H]1O[C@H](CO)[C@H](O)[C@H](O)[C@H]1O. The series can be described thus: purified protein. The settings on record: apparent constant, co-substrate O2 (air), 20 mM potassium phosphate pH 7.0, 30°C, Cu2+-activated enzyme.
In series [3] the test system is OC[C@H]1O[C@H](OC[C@H]2O[C@H](O[C@]3(CO)O[C@H](CO)[C@@H](O)[C@@H]3O)[C@H](O)[C@@H](O)[C@@H]2O)[C@H](O)[C@@H](O)[C@H]1O. Nature of the series: purified protein. The settings on record: apparent constant, co-substrate O2 (air), 20 mM potassium phosphate pH 7.0, 30°C, Cu2+-activated enzyme.
Series [4] relates to CO[C@H]1O[C@H](CO)[C@H](O)[C@H](O)[C@H]1O. Nature of the series: purified protein. The settings on record: apparent constant, co-substrate O2 (air), 20 mM potassium phosphate pH 7.0, 30°C, Cu2+-activated enzyme.

T1 sequence (V5NQ89 40-681 limits assumed): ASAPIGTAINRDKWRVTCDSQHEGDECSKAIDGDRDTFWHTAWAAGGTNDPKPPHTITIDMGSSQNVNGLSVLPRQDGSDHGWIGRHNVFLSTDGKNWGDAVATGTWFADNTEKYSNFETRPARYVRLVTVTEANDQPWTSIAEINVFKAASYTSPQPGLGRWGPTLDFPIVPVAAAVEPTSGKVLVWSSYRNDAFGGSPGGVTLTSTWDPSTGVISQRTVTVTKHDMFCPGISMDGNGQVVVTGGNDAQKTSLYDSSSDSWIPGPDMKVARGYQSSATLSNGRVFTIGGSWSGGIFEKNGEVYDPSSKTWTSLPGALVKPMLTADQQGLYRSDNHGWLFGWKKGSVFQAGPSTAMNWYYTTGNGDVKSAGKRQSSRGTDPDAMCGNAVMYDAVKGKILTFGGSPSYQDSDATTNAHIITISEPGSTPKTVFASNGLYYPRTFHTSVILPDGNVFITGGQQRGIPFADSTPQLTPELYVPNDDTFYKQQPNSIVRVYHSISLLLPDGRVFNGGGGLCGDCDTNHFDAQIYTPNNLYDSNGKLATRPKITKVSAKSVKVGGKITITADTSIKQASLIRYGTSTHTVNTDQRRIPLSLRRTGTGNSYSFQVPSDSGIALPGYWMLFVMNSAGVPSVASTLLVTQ

`OC[C@H]1OC(O)[C@H](O)[C@@H](O)[C@H]1O` (stereo partly drawn) [D-galactose]: the Km (in general, the concentration of substrate that gives half-maximal velocity) in series [1] came to 47 mM.
With “GalOx (galactose 6-oxidase from Fusarium oxysporum G12) (Fusarium oxysporum)”, in series [2], the Km came out at 45 mM; the Vmax (usually the rate approached at saturating substrate) turned out to be 81 µmol/min/mg; the kcat (commonly the maximal rate divided by the concentration of active sites) came to 99 s⁻¹; the kcat/Km – broadly, the second-order rate constant that governs catalysis at low substrate concentration – came out at 2200 M⁻¹ s⁻¹. In addition, in series [3], the Km is 23 mM, the Vmax worked out at 23 µmol/min/mg, the kcat amounted to 28 s⁻¹ and the kcat/Km worked out at 1200 M⁻¹ s⁻¹. In series [4], the Km was 41 mM, the Vmax stood at 47 µmol/min/mg, the kcat was 57 s⁻¹ and the kcat/Km amounted to 1400 M⁻¹ s⁻¹.
